Patent US20200123221A1 (IMMATICS BIOTECHNOLOGIES, published 2020)

Target: HLA-A*02-presented PRAME-004 (SEQ ID NO:97)
Test: cell-based or functional assay

Row | Binder | EC50 of IFNγ release from CD8+ T-cells with the TCR, T2 target cells loaded with PRAME-004 from 10 µM to 10 pM
1 | TCR R17P1D7 (TCR, V domains shown) V domain 1: QTVTQSQPEMSVQEAETVTLSCTYDTSESDYYLFWYKQPPSRQMILVIRQEAYKQQNATENRFSVNFQKAAKSFSLKISDSQLGDAAMYFCAYRWAQGGSEKLVFGKGTKLTVNP V domain 2: DIYQTPRYLVIGTGKKITLECSQTMGHDKMYWYQQDPGMELHLIHYSYGVNSTEKGDLSSESTVSRIRTEHFPLTLESARPSHTSQYLCATELWSSGGTGELFFGEGSRLTVLE | 1.83 nM
2 | TCR R16P1E8 (TCR, V domains shown) V domain 1: QKEVEQDPGPLSVPEGAIVSLNCTYSNSAFQYFMWYRQYSRKGPELLMYTYSSGNKEDGRFTAQVDKSSKYISLFIRDSQPSDSATYLCAMSEAAGNKLTFGGGTRVLVKP V domain 2: EAGVAQSPRYKIIEKRQSVAFWCNPISGHATLYWYQQILGQGPKLLIQFQNNGVVDDSQLPKDRFSAERLKGVDSTLKIQPAKLEDSAVYLCASSYTNQGEAFFGQGTRLTVVE | ~1 µM
